In article PMC4701952:

Molecular target: T1, SEP3 full length wild type (A. thaliana), O22456
T1 chain: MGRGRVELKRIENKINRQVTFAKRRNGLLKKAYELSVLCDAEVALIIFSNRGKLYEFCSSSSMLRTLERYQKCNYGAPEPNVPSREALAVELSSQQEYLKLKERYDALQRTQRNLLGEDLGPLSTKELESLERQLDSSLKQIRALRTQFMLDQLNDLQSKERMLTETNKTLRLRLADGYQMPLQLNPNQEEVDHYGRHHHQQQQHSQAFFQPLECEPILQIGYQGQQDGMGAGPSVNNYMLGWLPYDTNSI
Assay: native gel or EMSA; in vitro translated proteins (not purified) with Cy5 labelled SOC1 promoter DNA in which CArG box 1 or CArG box 2 is mutated (one site left)
Conditions: remark: other sources report otherwise

B1: SEP3 full length wild type, O22456 1-251 (natural protein)
chain: T1 chain
With B1 the stoichiometry N was 4.
